Publication PMC13395437, “A single DNA methylation site regulates cell fate during Clostridioides difficile sporulation”
Changes are numbered by the printed parent chain.

T1: Spo0A DNA-binding domain (Spo0A145-247-His6) (UniProt P52938)
T1 sequence: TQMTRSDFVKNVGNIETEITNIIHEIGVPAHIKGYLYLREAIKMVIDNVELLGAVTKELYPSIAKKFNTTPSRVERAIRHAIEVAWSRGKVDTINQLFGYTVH

T2: Spo0A DNA-binding domain (Spo0A145-247-His6) (UniProt P52938 145-247)
T2 sequence: T1 sequence with I42M

B1: Me3* PspoIIE FP probe (dsDNA)
DNA 1: AAAACCGATTATGACAAATAAAATTACTCC
DNA 2: GGAGTAATTTTATTTGTCATAATCGGTTTT
B2: WT PspoIIE FP probe (dsDNA)
DNA 1: B1 DNA 1 with T19A
DNA 2: B1 DNA 2 with A12T

Key:
[1] = biological target: T1, Spo0A DNA-binding domain (Spo0A145-247-His6); assay: EMSA; details: FP: 1 nM dsDNA, 50 mM Tris-HCl pH 8, 100 mM KCl, 2.5 mM MgCl2, 0.2 mM DTT, 10% glycerol, 2 µg salmon sperm DNA, 10 min, RT; EMSA: 20 fmol DNA, 10 mM Tris-HCl …
[2] = biological target: T2, Spo0A DNA-binding domain …; assay: fluorescence polarization; FP: 1 nM dsDNA, 50 mM Tris-HCl pH 8, 100 mM KCl, 2.5 mM MgCl2, 0.2 mM DTT, 10% glycerol, 2 µg salmon sperm DNA, 10 min, RT; EMSA: 20 fmol DNA, 10 mM Tris-HCl pH 7.6, 1 mM EDTA, 50 mM NaCl, 1 mM DTT, 5% glycerol, 30 min, 37 C; details: protein: recombinant; tags: C-terminal His6; label: 6FAM on strand 1 (5' primer); blunt

| Molecule | binding [1] | binding result [2] |
| --- | --- | --- |
| CCTCCTCTTTTGTTTATATTAAGAATTGTAACAAAGAGGAGTAATTTTATTTGTCATAATCGGTTTTAAAAATCAAAAAATATTAATACATTTTTTTTGACTTTTGACATATTAAGCCTTCCAAATTATCGTATTCACTTACGGTTATTTCTTCTATTTCTAATTTTTCCATTATTATATTCAATATTTTTACACCAGCAGTTATAATATCCGCACGTTTTTCTTGTAGCCCTTTTAAGTTCTTTTTATCAC (double strand) [Me3* PspoIIE EMSA fragment] | binds |  |
| CCTCCTCTTTTGTTTATATTAAGAATTGTAACAAAGAGGAGTAATTTTTTTTGTCATAATCGGTTTTAAAAATCAAAAAATATTAATACATTTTTTTTGACTTTTGACATATTAAGCCTTCCAAATTATCGTATTCACTTACGGTTATTTCTTCTATTTCTAATTTTTCCATTATTATATTCAATATTTTTACACCAGCAGTTATAATATCCGCACGTTTTTCTTGTAGCCCTTTTAAGTTCTTTTTATCAC (double strand) [WT PspoIIE EMSA fragment] | binds |  |
| B1 |  | binds |
| B2 |  | binds |
